Measurements from paper PMC6264593 (2018).

Tests used:
Aβ monomer = Aβ monomer (Homo sapiens, UniProt P05067); assay: SPR
Aβ protofibrils = Aβ protofibrils (Homo sapiens, UniProt P05067); assay: SPR

B1: Gantenerumab (antibody, V domains shown)
VH: QVELVESGGGLVQPGGSLRLSCAASGFTFSSYAMSWVRQAPGKGLEWVSAINASGTRTYYADSVKGRFTISRDNSKNTLYLQMNSLRAEDTAVYYCARGKGNTHKPYGYVRYFDVWGQGTLVTVSS
VL: DIVLTQSPATLSLSPGERATLSCRASQSVSSSYLAWYQQKPGQAPRLLIYGASSRATGVPARFSGSGSGTDFTLTISSLEPEDFATYYCLQIYNMPITFGQGTKVEIK
Kd (Aβ monomer): 34 µM
Kd (Aβ protofibrils): 0.0008 µM
